Assay results from patent US20210299212A1, “BINDNG MOLECULES TO TUMOR ASSOCIATED MACROPHAGES AND METHODS OF USE” (Sanford Burnham Prebys Medical Discovery Institute, priority 2018, published 2021).

Columns and labels:
[1] = target: T1, human recombinant RXRB protein (Homo sapiens, UniProt P28702); assay: Binding of FAM-peptide to protein immobilized on a plate; conditions: 1 μM, room temperature, 1 h, fluorescence
T1 sequence (P28702 1-533): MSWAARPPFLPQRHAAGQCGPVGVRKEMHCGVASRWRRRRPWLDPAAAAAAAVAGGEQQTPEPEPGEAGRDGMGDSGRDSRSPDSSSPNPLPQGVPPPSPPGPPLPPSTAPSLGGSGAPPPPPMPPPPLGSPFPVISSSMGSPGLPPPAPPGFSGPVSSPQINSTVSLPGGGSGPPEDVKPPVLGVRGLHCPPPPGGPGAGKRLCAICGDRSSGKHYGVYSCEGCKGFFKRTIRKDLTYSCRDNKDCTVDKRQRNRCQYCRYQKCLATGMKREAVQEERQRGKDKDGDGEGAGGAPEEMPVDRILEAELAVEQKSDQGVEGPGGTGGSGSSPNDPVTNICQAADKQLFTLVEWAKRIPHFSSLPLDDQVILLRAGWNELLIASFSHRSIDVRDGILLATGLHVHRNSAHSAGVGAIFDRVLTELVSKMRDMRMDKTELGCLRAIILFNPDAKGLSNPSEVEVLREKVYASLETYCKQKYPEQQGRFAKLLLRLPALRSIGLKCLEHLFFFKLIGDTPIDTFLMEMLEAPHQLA
Experimental: (§1) To confirm RXRB binds CRV, the binding of FAM-CRV to human recombinant RXRB protein immobilized on a plate was tested. Human RXRB recombinant protein (50 μL, 5 μg/mL) was immobilized in high binding 96-well plate at 4° C. overnight. Bovine serum albumin was used as the control protein. The protein solution was removed and washed one time with PBS. 1% BSA in PBS solution was then added to the wells and incubated at room temperature for 1 h to block the rest available binding sites. After one wash with PBS, RXRB and BSA were incubated with FAM-CRV (100 μL, 1 μM) at room temperature for 1 h. The wells were washed three times with PBS and the fluorescence was measured using a multiplate reader.

Bovine serum albumin = Bovine serum albumin (Bos taurus, UniProt P02769); assay: Binding of FAM-peptide to control protein immobilized on a plate; conditions: 1 μM, room temperature, 1 h, fluorescence
Chain of Bovine serum albumin (P02769 25-607): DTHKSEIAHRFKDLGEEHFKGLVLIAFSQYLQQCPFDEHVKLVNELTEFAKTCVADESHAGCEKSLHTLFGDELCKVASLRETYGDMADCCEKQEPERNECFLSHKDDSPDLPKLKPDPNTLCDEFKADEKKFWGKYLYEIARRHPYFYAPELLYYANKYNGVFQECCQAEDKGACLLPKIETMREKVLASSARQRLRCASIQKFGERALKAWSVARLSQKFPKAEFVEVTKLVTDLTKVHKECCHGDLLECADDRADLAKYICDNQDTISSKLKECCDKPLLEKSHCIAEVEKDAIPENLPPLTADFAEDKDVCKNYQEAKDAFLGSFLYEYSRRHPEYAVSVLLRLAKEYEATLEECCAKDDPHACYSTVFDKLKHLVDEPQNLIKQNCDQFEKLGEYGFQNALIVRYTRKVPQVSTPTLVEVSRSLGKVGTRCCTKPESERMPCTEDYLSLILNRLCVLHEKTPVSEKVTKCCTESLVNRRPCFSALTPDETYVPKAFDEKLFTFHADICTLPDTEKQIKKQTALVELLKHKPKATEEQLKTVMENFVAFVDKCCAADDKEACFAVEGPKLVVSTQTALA
Experimental: as §1

4T1 tumors = assay: Immunofluorescence staining of tissues for FAM-peptide and CD31 at different homing time points; format: in vivo, mouse; conditions: 4T1 orthotopic tumor-bearing mice, i.v.
Experimental: FAM-CRV was intravenously injected into tumor bearing mice. To this end, 4T1 […] breast cancer cells were cultured in Dulbecco's modified Eagle's medium supplemented with 10% fetal bovine serum, 100 U/mL penicillin and 100 μg/mL streptomycin. The […] cell line was authenticated by the DNA Analysis Core Facility at the Sanford Burnham Prebys Medical Discovery Institute (La Jolla, Calif.) and tested negative for mycoplasma contamination. To produce 4T1 tumors, 1×10^6 tumor cells (suspended in 100 μL of PBS) were orthotopically injected into the mammary fat pad of normal BALB/c mice. All animal experimentation received approval from the Animal Research Committee of Sanford Burnham Prebys Medical Discovery Institute. Biodistribution of fluorescein-conjugated peptides (FAM-CRV, FAM-GGS, or FAM-ARA) was examined after intravenous injection of 100 μL peptide solution (1 mg/mL PBS) into the tail vein of a mouse. […] Tissues were collected, fixed with 4% formaldehyde buffer solution and then soaked in 30% sucrose in PBS overnight. Tissues were finally frozen in OCT embedding medium (Tissue-Tek), and sliced for immunofluorescence staining. Tissue sections were blocked in 1% bovine serum albumin with 0.1% Triton X-100 for 1 h, and incubated with appropriate primary antibodies and second antibodies. […]

[2] = test system: cells isolated from tumors, spleen, liver, and blood from the 4T1 tumor mice; assay: Ex vivo binding to cells isolated from organs of 4T1 mice, flow cytometry; format: cell-based, mouse; conditions: 4T1 model, 4° C., 1 h
Experimental: Mice with tumor size about 8 mm were euthanized under deep anesthesia (Avertin, lack of response to a toe pinch) by cervical dislocation. Target (tumor) and control (e.g., liver, spleen) tissues were collected and further dissociated to single cells. Tumor cells were dissociated using MACS tumor dissociation kit. Cells were then incubated with fluorescent-labeled CRV or other cell markers (CD11b, CD68, F4/80, FAB, EpCAM, CD31) at 4° C. for 1 h. Positive cells were quantified on BD LSRFORTESSA and data were analyzed using FCS Express Version 3 (De Novo Software).

Sequence | binding to immobilized RXRB compared to control peptide FAM-GGS [1] | binding to control protein BSA (Bovine serum albumin) | fluorescence signal in the tumors at homing time points 5, 15, and 60 min (4T1 tumors) | specific labelling of macrophages in the tumor (ex vivo) [2]
CRVLRSGSC [cyclic macrophage-targeting peptide] | significantly higher binding | neither peptide bound |  | 
GGSGGSKG [FAM-GGS, FAM-labeled control peptide] |  | neither peptide bound | no fluorescence signals | could not specifically label macrophages
